The nature of the series: soluble fraction after stress (log2 fold change); higher = more stays soluble; pooled small domains, quantitative proteomics. Conditions: stress: 50 degC. The essentials:
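After stress at 50°C, the amount of each protein still soluble was measured. This was done on pooled custom libraries of small protein domains, using high-throughput quantitative proteomics. The figure given is a base-two log fold change and stands for aggregation propensity, with higher values meaning more protein stays in solution.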
On to “HMESIGANIRRLRKERNMSQDELARKAFTNRSNINRYESGKMVPSADTTEKIEEALGVPAGTLAQ”, for which the “soluble fraction (log2)” value was 0.132.
For “HMKRWHVGDPIDALTAAGKVPSWSTIRQRFWKTIAALYPDIEQSERLQRGLAMLDEAGTSIELHHP”, the “soluble fraction (log2)” value is -1.01.
For “HMIADDLKSLEGVDQDMLRDLAEAGINTRDDLAELAIDELIEITGVSTEEAEKVIMAARAHWFEEES”, the “soluble fraction (log2)” value came out at 0.463.
Under “HMENYGEAITYIHGMIEDSSEKMLAASKALKVNANTLIKFMKDPYSVAAHIRDRIVENLANLEKAVKAI” stands 0.075.
The figure for “HMEEPLIISIDSNGAVYLEVDSFKDQSIEMSSLREIIEKIILANPDIQVVVRGDSEVKYEKVMDLMSILQS” is -1.29; for “HMTIFGWQQDETGKWYRNADGTFYENGWKEIDGAQYYFDENGYVTTGWLELDGKDYYFDEEGKYDSTKVR” it is -0.46; for “HMAPQSAAAILRYLSSGAIRGVGPATAQRIVERFGTDSLEIIQNRPKELAAINGISINKALSISEEYAKQY” it is -0.831.
Under “HMLSADLLDKIQRIDSLEQQGKYAQAEKEARALLSDPSITPSERASVQNILSSIARKKAAQAQ” stands 0.11; under “HMDIEFSDELRTFIDEWSKKEGGLVMMLHRIQNEYGFIPRTAAEKLSLISGIPLARIYGVITFYHFFKT”, -0.461; under “HMKEILVGVEPLSKKQIIIKKGIKGRSDYIIFEKKNYGLPENLKPEEVSIEIALKIIDEKKKRKA”, -1.23.
As to “HMAQILEPSVALKKLLELKQAGFEDETLVGWIRKVEFTRPLTPDDLLEWKGAGISQAVIRAAM”, the “soluble fraction (log2)” value was -0.0938.
In the case of “HMGRYVIQIASFSSKNNAIEAADKLGGFVVQSGRFYRVRTGPFATRGEADAALASARRVGYRDAFIDTS”, the “soluble fraction (log2)” value was -0.531.
Under “HMNNTIKFSVDIKNSGKRLDIFLSENVTQYTRSYLKRLIENSHVKLNNKILNSPSTKVKFQDQIIINNIE” stands -1.91.
Under “HMNISALKGKIGEVYLKIPAHNAGKGKVLISLKGTHHELYAITRSGEDISSGEFVKVIEIEDEILVVEK” stands -0.58; under “HMDYARYGLSEKEAELIELIAQGMNNKEISAEIYLSEGTVRNYISELLEKLELRDRTQLAVYYYTHR”, -2.71.
As to “HMFMVAGHLSEKNGYFYAVINYNDSLGNRKTKWMSTGLTVKGNKKRAEAILAEKRRTFQPDEPV”, the “soluble fraction (log2)” value is -1.69.
Under “HMVKSDLVGHRFILVEDVTPKLTPKYHYSGINWKLITTDNLVAGTRVEVIQVDVGKFHIKAIK” stands -1.65; under “HMKPTSLLGIERYLGSGLIRGVGPSTAKQIVEHFGMETMEVLTEHPERLQEVHGMGRKRWRQIAESFQEQQ”, -0.797.
As for “HMQLTDLSALEAIIKEVLAANPKSVEDYKSGKEKAFGSLVGQAMKATKGKANPETVNSLLRKNLN”, the “soluble fraction (log2)” value is 0.519.
Regarding “HMDLRIKEIMSERNVTSAWLAEKVGISKVAVSNIVTGKSSPSLDNLLKIADALNVSITTLIG”, the “soluble fraction (log2)” value was -0.824.
The figure for “HMSVEVPNLIGKTLDQVDIDLKSLDLSFVILDSARYNSSFKPLSVIDHQPISGAKVKVNRKIYLTINPS” is -0.445.
For the sequence “HMVIIPNILNKYKGLAFRQLEQVGLKIGDTIYEPNIQRDAVLRMQINGRSVQPGDQVMRFSVVDLVIG”, the “soluble fraction (log2)” value is -3.21.
In the case of “HMKKIYEEVSEAILTMIKNGTLKPGDKLLPVHQLAEQFQVGRSAVREALSALRAMGLIEMKQGEGTYVKNF”, the “soluble fraction (log2)” value was -0.462.
With “HMDQNDYMLTRIRNGQMRNKVSVSMPASKIKSAIAAVLKDEGYIENFALNDSSGKPSLIVNLKYYAGQPV”, the “soluble fraction (log2)” value was -0.0135.
Turning to “HMLFRGNGFNTLYDKQLRITQQGEFKDGRLWDGKYYRYSKAGELVRIEIYEQGRYAGNGVITDEDKA”, the “soluble fraction (log2)” value was -0.845.
For “HMAAMSLGERIGAHRKRMGISQEELGHRMGVSRQAVSKWETGRAVPDMENLLALARLFGVPVSELAD”, the “soluble fraction (log2)” value was -0.177.
On to “HMEKTTTLFDETTNPGIIYIGKAMPTGSAISEAAAVWAIKTIDTTTDTEIKWADGVTTYTKVWNNRASYSY”, for which the “soluble fraction (log2)” value is -1.76.
As to “HMALKSYEDMVGKTGVAYTVLRPSGKVIINDELFDATARSGMIEKGNEVIIYDYKNAQLIVEK”, the “soluble fraction (log2)” value was 0.0774.
The figure for “HMLGVKKFGGEAVIAGNIILRQRGTKWITGSNVGIGKDHTLFAKIEGYVVFERMRGRDGQQQISIYP” is -0.101; for “HMDVYKRQKLRNFIESLFEDAPKNKQTIELKEEMLQNLIDKYNDLVDSGKSSEAAYNIATAS” it is -0.0392.
The figure for “HMAQWGFNGSEAGDLSFQQGDVIEVVEKVKDDWWRGRVLGSTEIGLFPS” is -0.225; for “HMNGARALAGAIAEAIRKQVYRVNERLPAERELASHYDVSRGTLRSALALLEQEGLVTRKVGSGTFVMPP” it is -0.438; for “HMHPEITLHPVRANIYSISVKNATSMEIYSVSGQLVGIRELKEGTNTLDLTGYINGVYIVNLQNKAFKLVK” it is -1.94.
With “HMNSFGWESLIDKEGIADTDLHPSGWVRIDDRRIFVVSEGDFIDKGSGVTVLSVDGNRVVVRELI”, the “soluble fraction (log2)” value is -0.836.
For “HMVQVDNELTEFSVQSITRGIDALGEVTIRVTAPDGGVYTGRGADNDIIVSSTKAYLNALNRLLNDK”, the “soluble fraction (log2)” value was -0.229.
“HMALEGTLARVSVRIPESGVGEIIFSLGGVRRSEAARSVSGRAIPRGTEVVILSYERGIATVQPYEELLTN”: the “soluble fraction (log2)” value was 0.013.
The figure for “HMSHANAALTPRARLRLAKLIVEEHWPVATAAKMFMVSPPTARKWATRFRAEGPAGMADRSSRP” is -1.46; for “HMQAESLTVVRSAELKADRFLDAATLQTLQTGQVVESLRTESGWVQVRIAGQQGWVRAMNVKGA” it is -0.459.
The figure for “HMEELNFYPNPAYKYINLDYVGLKEIYTVLGKKLLETYDTRINISNLNSGIYLIKFKNQALRFVK” is -0.0334.
The figure for “HMKISELAKKVIASGRVTQWAKHPHIYFVNGMRKVAIELDVNGVFSISMRYYPYDPADRELVENLIRGD” is -2.53; for “HMKFGETLIDLRKRNGLTQEELAAKLYVTRQAVSRWERGEVTPGIDMLKLIANVLNEPVAHLLDW” it is -0.977; for “HMENPLVEVVVPVLNEERILKANIETLHHFLRTQPGFNFRITIADNGSTDKTQAIANDLTNSHAVIRV” it is -0.12.
As to “HMSPSRRENLTAAAKEYFVNTQIRHKTFGNGVIIKRSGNIAAIRFDNGTIKQIDLIAALQAKVLSIL”, the “soluble fraction (log2)” value is 0.168.
Under “HMEFSYLEEIGHEKGDLIKGLQLIQQKEGYVSDDAVRAVAENFGMSPAEVEGVLTFYAQFKR” stands -0.061.
As for “HMHTGLTNYEYKQIKSSLLKILTQSESMRLGELVDKVDQFESEKVTTVIRFLVGNEELMLFDDTLTLKKQL”, the “soluble fraction (log2)” value was 0.0246.
The figure for “HMIMEVDYGTFMKMTEENAIGRVQMDSTEIIFTDKENTQVYSTGIMYDPDLTQRLYDAGAVFA” is -0.986.
For the sequence “HMPSPEMLKETEKRKAEEIYRSQINLFIDDYHRLKGQYPLLEDIIDNKKDSIPIEILREISISILKNYFE”, the “soluble fraction (log2)” value was -0.242.
As to “HMLQEHVLEIRHPSWNDAFRIIGHDGWRTQTGAHAAILSYDEEELNIKWDSWGYERFIRDEKGIFRLAA”, the “soluble fraction (log2)” value was -0.055.
The figure for “HMNQNHFLDSVVEFAKDEASRAFFQKAVKKLGEGLVEEAMGEVKMREADGSVNSRAPYFIALLENWMENR” is 0.0128.
The figure for “HMFDKNKPVVVEGENAEVALKKVSKYFNVPTEKLDYTLLGQKSAGLLGIGSKVYQFKVWLKREIP” is 0.396; for “HMPELFLFNPDTASAATFQALGFSARQAGVLIHFREALGGRFGSVEQFSKSYVVDSATLERLRPYMVF” it is -3.63; for “HMLVNNSTIETVIDFANVKFGMELTKDQVSEQLRNLSFSQTLKLINSMKADDNDAFSEIIDL” it is -0.672.
The figure for “HMERFLENAIPVLGETGLDIKSATEDFENALIRQALHLSGGNKNRAATLLGLKRTTFVEMLKRKSL” is -0.806; for “HMTISIAEQIFEQLEREILSGAYPRGELLTETKLSEKLGVSRTPIREALRRLDQEHIIKMTTKGAFVLGI” it is -2.04; for “HMGEGRVRLAQEAANRFMTAMAGDRPGFEEAGRALFAGDRARFHAETEGWPEDIRDHARRLAEPALQ” it is 0.0288.
With “HMKSVTAPLPGTVTQILVKVGDAVKAGDTVLMLEAMKMENSITAEAAGTVKAIRVEKGAQVQGGDVLIEM”, the “soluble fraction (log2)” value was 0.156.
The figure for “HMKKYEFIEDLPGVGPATAQKLRDLGYHTVESLAMATARELEPIGVGEKKAFSMIEAARSAIGFS” is 0.283; for “HMSTMNRLPRHEQILKLVRANGFMPIEELARLLDVTPQTIRRDINTLSEENLLRRFHGGAALGPSVE” it is -0.0842; for “HMAPTVPEVVRLEEGAARSAIEAAGLSVGSVEFRASSDPAGTVLATRPIAGRKVRPSSAVDLVLSDGRTP” it is 0.0905.
As for “HMNILKKDKRLWDENNLNKPLLFELLENYDKEIFELLLTDKDIKAKFFVQAGESYVFKYDDFRFAIEQN”, the “soluble fraction (log2)” value is -0.702.
For the sequence “HMNGYGALVRLGRSRGWVTVEEINDHLPESAVRTAENVQEITEALGRLSIKVFETRPDEDDLLIT”, the “soluble fraction (log2)” value is -0.0632.
Regarding “HMNKITIEEAKSIALKHSNLDESQVSFIRSEYDFDNGIEKYEIEFYYNNNKYEYEINAKTGDIISYDYDI”, the “soluble fraction (log2)” value was -0.292.
The figure for “HMSSWEDNFSYWIRNVAETLDKDLLNVANSKLEKIIINAALDQTNGKKNEAAILLGLGRNTLAKKIKELG” is -0.858; for “HMELDFLRLQIITGIHSGRLSNNEILMMYDTYSQKGGNSYVSRIVNDYVDENNIKEEGKRNARK” it is -0.346.
Regarding “HMERKMKNNISDQTTYDTDKILNFNGKGYLNGLVIPNNYQIKEEGYYVFRQVALDGREQILYFTIQDLS”, the “soluble fraction (log2)” value is -1.96.
Under “HMKEGTIPPVVNRTLSDAEFVLKSYGYELGRVSEQHSDMPKDIVIKQSPEAGTVADPGTRVDVVVSIGKA” stands 0.404.
As to “HMWSLLVILQLREGGQRFSQLQRAIPDISQRMLTQTLRKLERDGLVSRKVTPSTPPRVDYAITELGH”, the “soluble fraction (log2)” value was -1.04.
In the case of “HMTENLELLATGSLWTEPDGSGKIISYLIPGLRVKKLETNGIFYKIQLQNGLIGWADQSLFTIAEPK”, the “soluble fraction (log2)” value is -0.0642.
The figure for “HMENPMIEQLKQFIEAQGLTQGQLAAKLGVSTATVNQYLQGKYKGDTAALDAKAAQLMARSREK” is 0.103.

Values taken from the domain aggregation screens of Martell et al. (2025).
